Measurements reported in IntAct's records for PubMed 18354501.
One block for each substance: values may come before it.

Columns and labels:
t2ea_human GTF2E1 [1] = molecular target: t2ea_human GTF2E1 (UniProt P29083)
t2ea_human GTF2E1 [2] = molecular target: t2ea_human GTF2E1 (UniProt P29083); remark: listed apart in the source
t2ea_human GTF2E1 [3] = molecular target: t2ea_human GTF2E1 (UniProt P29083); remark: listed apart in the source
t2ea_human GTF2E1 [4] = molecular target: t2ea_human GTF2E1 (UniProt P29083); remark: listed apart in the source
t2ea_human GTF2E1 [5] = molecular target: t2ea_human GTF2E1 (UniProt P29083); remark: listed apart in the source
t2ea_human GTF2E1 [6] = molecular target: t2ea_human GTF2E1 (UniProt P29083); remark: listed apart in the source

t2ea_human GTF2E1, sequence (P29083 whole entry): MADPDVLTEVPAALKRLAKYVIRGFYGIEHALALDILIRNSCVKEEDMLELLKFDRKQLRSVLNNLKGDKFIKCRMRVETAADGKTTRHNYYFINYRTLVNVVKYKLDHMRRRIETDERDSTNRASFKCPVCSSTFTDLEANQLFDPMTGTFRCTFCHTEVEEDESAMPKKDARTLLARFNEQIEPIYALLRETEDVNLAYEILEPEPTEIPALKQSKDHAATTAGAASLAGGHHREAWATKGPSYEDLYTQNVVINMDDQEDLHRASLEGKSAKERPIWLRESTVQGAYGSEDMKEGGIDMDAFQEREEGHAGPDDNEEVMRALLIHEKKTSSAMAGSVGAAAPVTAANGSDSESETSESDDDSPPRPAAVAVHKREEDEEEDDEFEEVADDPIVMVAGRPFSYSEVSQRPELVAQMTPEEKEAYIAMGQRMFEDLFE
General transcription factor IIH subunit 1 (Homo sapiens), P32780 Q66A, sequence (P32780 whole entry Q66A): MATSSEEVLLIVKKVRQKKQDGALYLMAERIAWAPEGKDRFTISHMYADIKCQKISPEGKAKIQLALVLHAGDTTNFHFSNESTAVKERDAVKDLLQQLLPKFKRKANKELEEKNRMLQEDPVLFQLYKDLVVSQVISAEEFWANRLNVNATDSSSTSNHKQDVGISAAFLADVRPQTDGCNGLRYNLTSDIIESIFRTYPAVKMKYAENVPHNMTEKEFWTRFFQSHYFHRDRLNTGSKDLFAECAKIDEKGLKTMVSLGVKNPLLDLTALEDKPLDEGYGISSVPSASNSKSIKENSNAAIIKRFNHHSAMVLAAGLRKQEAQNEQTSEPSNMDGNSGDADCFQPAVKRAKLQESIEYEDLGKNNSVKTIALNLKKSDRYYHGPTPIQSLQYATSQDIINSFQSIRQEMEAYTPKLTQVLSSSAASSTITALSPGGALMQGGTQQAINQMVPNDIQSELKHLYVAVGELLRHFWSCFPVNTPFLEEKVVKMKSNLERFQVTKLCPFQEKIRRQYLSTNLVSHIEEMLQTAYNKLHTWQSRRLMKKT
General transcription factor IIH subunit 1 (Homo sapiens), P32780 K18A, sequence (P32780 whole entry K18A): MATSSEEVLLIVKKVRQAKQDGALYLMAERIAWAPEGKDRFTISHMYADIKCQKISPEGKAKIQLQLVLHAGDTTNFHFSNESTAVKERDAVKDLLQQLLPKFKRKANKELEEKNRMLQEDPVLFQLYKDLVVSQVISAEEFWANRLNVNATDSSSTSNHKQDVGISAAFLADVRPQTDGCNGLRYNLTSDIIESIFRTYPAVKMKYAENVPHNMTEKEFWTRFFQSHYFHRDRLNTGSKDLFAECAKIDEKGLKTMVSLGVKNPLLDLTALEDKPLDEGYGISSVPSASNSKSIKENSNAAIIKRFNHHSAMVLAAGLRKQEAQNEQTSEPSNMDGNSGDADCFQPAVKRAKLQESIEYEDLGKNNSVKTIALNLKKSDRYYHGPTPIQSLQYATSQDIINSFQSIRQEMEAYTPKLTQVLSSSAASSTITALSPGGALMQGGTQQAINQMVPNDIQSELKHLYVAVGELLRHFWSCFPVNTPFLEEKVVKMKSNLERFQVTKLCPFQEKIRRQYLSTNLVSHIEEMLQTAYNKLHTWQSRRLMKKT
General transcription factor IIH subunit 1 (Homo sapiens), P32780 K54A, sequence (P32780 whole entry K54A): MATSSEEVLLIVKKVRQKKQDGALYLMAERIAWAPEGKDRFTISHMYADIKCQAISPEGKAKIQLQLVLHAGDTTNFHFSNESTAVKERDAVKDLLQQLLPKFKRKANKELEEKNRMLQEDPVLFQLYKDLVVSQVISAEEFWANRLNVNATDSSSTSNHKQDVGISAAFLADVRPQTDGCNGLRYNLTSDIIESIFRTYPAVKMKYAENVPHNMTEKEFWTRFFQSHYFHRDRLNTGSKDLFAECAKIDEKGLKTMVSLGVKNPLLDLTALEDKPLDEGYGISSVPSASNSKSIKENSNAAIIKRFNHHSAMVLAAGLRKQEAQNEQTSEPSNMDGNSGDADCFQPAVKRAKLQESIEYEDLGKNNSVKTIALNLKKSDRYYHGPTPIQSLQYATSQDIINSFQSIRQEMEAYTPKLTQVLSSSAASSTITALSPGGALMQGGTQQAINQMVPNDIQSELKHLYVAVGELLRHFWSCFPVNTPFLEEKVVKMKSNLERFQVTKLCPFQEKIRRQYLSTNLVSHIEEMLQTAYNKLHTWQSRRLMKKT
General transcription factor IIH subunit 1 (Homo sapiens), P32780 K19A, sequence (P32780 whole entry K19A): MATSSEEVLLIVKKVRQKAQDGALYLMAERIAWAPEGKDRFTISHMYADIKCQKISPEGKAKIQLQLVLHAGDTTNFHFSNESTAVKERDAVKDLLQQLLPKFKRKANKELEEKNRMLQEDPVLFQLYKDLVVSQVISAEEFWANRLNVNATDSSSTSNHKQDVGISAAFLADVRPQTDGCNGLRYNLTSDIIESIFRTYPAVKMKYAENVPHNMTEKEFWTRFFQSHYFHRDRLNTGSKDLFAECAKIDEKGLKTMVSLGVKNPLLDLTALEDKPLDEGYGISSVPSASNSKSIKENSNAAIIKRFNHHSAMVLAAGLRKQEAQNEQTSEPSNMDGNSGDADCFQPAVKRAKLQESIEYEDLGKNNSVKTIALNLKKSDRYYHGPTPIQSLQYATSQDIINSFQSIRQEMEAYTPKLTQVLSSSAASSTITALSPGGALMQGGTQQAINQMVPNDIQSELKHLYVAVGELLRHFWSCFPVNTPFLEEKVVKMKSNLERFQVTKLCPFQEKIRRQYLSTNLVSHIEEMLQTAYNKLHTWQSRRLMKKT
General transcription factor IIH subunit 1 (Homo sapiens), P32780 V68A, sequence (P32780 whole entry V68A): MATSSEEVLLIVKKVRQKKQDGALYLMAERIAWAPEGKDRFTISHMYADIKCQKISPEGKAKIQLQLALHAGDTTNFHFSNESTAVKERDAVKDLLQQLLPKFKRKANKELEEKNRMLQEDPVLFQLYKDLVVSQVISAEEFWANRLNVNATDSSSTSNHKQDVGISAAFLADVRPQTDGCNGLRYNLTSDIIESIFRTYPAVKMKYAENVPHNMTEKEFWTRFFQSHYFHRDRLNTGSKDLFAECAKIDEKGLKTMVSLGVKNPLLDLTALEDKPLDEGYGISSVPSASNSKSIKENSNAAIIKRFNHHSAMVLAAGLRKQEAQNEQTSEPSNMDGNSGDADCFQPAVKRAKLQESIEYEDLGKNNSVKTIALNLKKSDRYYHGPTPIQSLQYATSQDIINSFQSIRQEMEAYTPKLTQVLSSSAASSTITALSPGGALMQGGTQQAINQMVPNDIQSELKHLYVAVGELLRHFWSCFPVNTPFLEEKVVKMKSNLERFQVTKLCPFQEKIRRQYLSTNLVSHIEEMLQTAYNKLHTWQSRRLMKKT

effect of a mutation on the interaction (t2ea_human GTF2E1 [1]): disrupting interaction
effect of a mutation on the interaction (t2ea_human GTF2E1 [2]): decreasing interaction
Substance: General transcription factor IIH subunit 1 (Homo sapiens), P32780 Q66A

effect of a mutation on the interaction (t2ea_human GTF2E1 [4]): decreasing interaction
Substance: General transcription factor IIH subunit 1 (Homo sapiens), P32780 V68A

effect of a mutation on the interaction (t2ea_human GTF2E1 [5]): decreasing interaction
Substance: General transcription factor IIH subunit 1 (Homo sapiens), P32780 K18A

More lines, now with the values behind:

Substance: General transcription factor IIH subunit 1 (Homo sapiens), P32780 K54A
effect of a mutation on the interaction (t2ea_human GTF2E1 [3]): disrupting interaction

Substance: General transcription factor IIH subunit 1 (Homo sapiens), P32780 K19A
effect of a mutation on the interaction (t2ea_human GTF2E1 [6]): disrupting interaction
